What was measured:
Test in all cases: SPR
[1] = target: CTDΔED (Streptomyces coelicolor, UniProt Q9X909 610-950, del951-952)
[2] = target: TopA881 (Streptomyces coelicolor, UniProt Q9X909 1-881, del882-952)
[3] = target: TopA wild type (Streptomyces coelicolor, UniProt Q9X909 1-952)
[4] = target: TopA CTD (Streptomyces coelicolor, UniProt Q9X909 610-952)

Measured: binding result

B1: sstopA-biot 120 nt ssDNA (63% GC) (ssDNA)
DNA: not shown
binds: all assays above

— article PMC5714199
